Assay results from patent US12070483B2, “Compositions and methods for treatment of acute lung injury” (THE TRUSTEES OF THE UNIVERSITY OF PENNSYLVANIA, priority 2018, dated 2024).

What was measured:
[1] = system: mouse models of LPS-induced ALI; conditions: previous studies; cited from earlier work
Prdx6 = target: T1, Prdx6 (Mus musculus, UniProt O08709); assay: aiPLA2 (Prdx6-PLA2) activity of mouse lung homogenate after IT or IV injection of PIP; format: in vivo; conditions: Table 6
T1 construct: from tissue; host or cells: mouse lung homogenate (wild type mice)
T1 sequence (O08709 1-224): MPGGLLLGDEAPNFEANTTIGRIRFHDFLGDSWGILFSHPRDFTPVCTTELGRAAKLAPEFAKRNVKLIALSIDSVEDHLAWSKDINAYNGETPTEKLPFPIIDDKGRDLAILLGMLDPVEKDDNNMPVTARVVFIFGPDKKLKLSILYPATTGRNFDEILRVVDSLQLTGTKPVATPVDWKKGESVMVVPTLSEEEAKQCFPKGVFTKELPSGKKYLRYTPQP
Method: FIG. 6: PIP-2 in liposomes was administered to mice either intratracheally (IT) or intravenously (IV) at 0 time. Lungs were harvested at intervals between 4 and 72 h after the PIP-2 administration, homogenized, and analyzed for Prdx6-PLA2 activity. PIP-2 is effective by either the IT or IV route with a calculated ½ time for recovery of ˜50 h. Results are mean+SE for N=3-4.
PIP-2 in liposomes injected IV or IT inhibits Prdx6 activity of the lung homogenate. Maximal inhibition was seen within 4 hours after administration of PIP-2. Recovery from inhibition began at ˜36 hours and was complete by 48 hours. Results are similar for PIP-1,2,4 (PIP-3 and -5 were not tested). […] Effectiveness requires liposomes for peptide delivery. Inhibition after IT or IV administration was similar.

recombinant hPrdx6 = target: T2, recombinant hPrdx6 (Homo sapiens, UniProt P30041); assay: aiPLA2 activity of recombinant human Prdx6 in presence of peptide; format: biochemical; conditions: for aiPLA2 activity of recombinant hPrdx6: Table 1, hPrdx6 only (no peptide) 93.4; for aiPLA2 activity of human recombinant protein: Table 2, hPrdx6 only 92.0; for aiPLA2 activity of human recombinant Prdx6: Table 3, hPrdx6 only 99.91
T2 sequence (P30041 1-224): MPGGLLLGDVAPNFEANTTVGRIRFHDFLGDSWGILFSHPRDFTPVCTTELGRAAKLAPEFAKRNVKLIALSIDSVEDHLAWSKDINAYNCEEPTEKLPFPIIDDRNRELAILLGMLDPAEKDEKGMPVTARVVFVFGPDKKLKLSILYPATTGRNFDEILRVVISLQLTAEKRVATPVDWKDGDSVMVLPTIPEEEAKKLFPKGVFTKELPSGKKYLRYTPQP

NOX2 = assay: ROS production (Amplex red) of isolated perfused mouse lung stimulated with angiotensin II; format: in vivo; conditions: mouse, ex_vivo
Method: FIGS. 5A and 5B: PIP-2, incorporated within liposomes, was instilled intratracheally prior to lung isolation. FIG. 5A: Isolated lungs were perfused in a recirculating system with artificial medium. NOX2 activity was stimulated by addition of angiotensin II (Ang II). Amplex red along with horseradish peroxidase were added to the perfusate for detection of ROS production. Aliquots of perfusate were analyzed at intervals by spectrophotometry to determine oxidation of amplex red, indicating ROS production. Results are mean±SE for N=3-4. FIG. 5B: Mice were sacrificed at 6, 12, or 24 h after LPS administration ([…]) and lungs were perfused in situ for 15 min with saline solution containing a fluorophore (difluorofluorescein diacetate, DFFDA). Lungs then were homogenized and fluorescence of the lung homogenate was determined as an index of ROS production. Results for FIG. 5A & FIG. 5B are mean±SE for N=4. *P<0.05 vs corresponding LPS and LPS+PIP-2; § P<0.05 vs 12 h and 24 h LPS; ΔP<0.05 vs corresponding LPS.
FIG. 8: PLA2 inhibitory peptide (PIP-2) inhibits ROS production stimulated by angiotensin II (Ang II) in isolated perfused mouse lung. PIP-2 (2 μg/g body weight) was administered to intact wild type (WT) mice by the IV route. […] After 30 mins, lungs were isolated from anesthesized mice and perfused in a recirculating system with added Ang II ([…]) as a Nox2 activator and Amplex red plus horseradish peroxidase to detect perfusate ROS. WT basal lungs were not stimulated with Ang II. After a 15 min equilibration period (called zero time), aliquots were taken at 15 min intervals for analysis of fluorescence. Each plotted point represents the mean±SE for n=3. The lines were drawn by the least mean squares method. The mean rates of ROS […] calculated from the slope of each line are indicated in parentheses. *P<0.05 vs the other 3 slopes.
FIG. 10: Effect of liposome composition on delivery of PIP-2 to lungs after IV administration. […]
The effect of the PIPs on ROS production in control (untreated) lungs was determined in vitro with isolated perfused lungs. […] The basal rate of ROS production was evaluated with WT lungs that were perfused in the absence of AngII. […] Aliquots of perfusate were taken at 15 min intervals and analyzed by fluorescence for resorufin (λexcitation 568 nm, λemission 581 nm), the product of Amplex red oxidation. The rate of Amplex red oxidation was calculated and expressed as arbitrary fluorescence units (AFU) with normalization to mouse body wt. There was a low rate of Amplex red oxidation in the absence of HRP in the perfusate (˜7% of the AngII-stimulated fluorescence), indicating a non-ROS-mediated oxidation of the fluorophore; this value was subtracted to obtain the reported values.

aiPLA2 activity of recombinant hPrdx6 (recombinant hPrdx6)	aiPLA2 activity of human recombinant Prdx6 (recombinant hPrdx6)	Molecule	further results
		CCCCCCCCCCCCCCCCOCC(COCC(F)(F)F)OP(=O)(O)OC (centres unmarked) [MJ33]	protection in LPS-induced ALI [1]: protection
45.0 nmol/min/mg prot.		DEELQATLHDFRHQIL (Inhibitory peptide.) [PIP-1, 16 residue human peptide]	Prdx6-PLA2 activity of mouse lung homogenate (Prdx6; IT, lungs lavaged prior to assay, 0 post injection): 9.0 ± 0.2 nmol/hr/mg protein; Prdx6-PLA2 activity of mouse lung homogenate (Prdx6; IT, lungs lavaged, 4 hr post injection): 1.6 ± 0.1 nmol/hr/mg protein; Prdx6-PLA2 activity of mouse lung homogenate (Prdx6; IT, lungs lavaged, 12 hr post injection): 1.6 ± 0.1 nmol/hr/mg protein; Prdx6-PLA2 activity of mouse lung homogenate (Prdx6; IT, lungs lavaged, 24 hr post injection): 1.7 ± 0.2 nmol/hr/mg protein; Prdx6-PLA2 activity of mouse lung homogenate (Prdx6; IT, lungs lavaged, 48 hr post injection): 2.9 ± 0.2 nmol/hr/mg protein; Prdx6-PLA2 activity of mouse lung homogenate (Prdx6; IV, 0 post injection): 8.8 ± 0.3 nmol/hr/mg protein; Prdx6-PLA2 activity of mouse lung homogenate (Prdx6; IV, 4 hr post injection): 1.4 nmol/hr/mg protein; Prdx6-PLA2 activity of mouse lung homogenate (Prdx6; IV, 12 hr post injection): 1.5 nmol/hr/mg protein; Prdx6-PLA2 activity of mouse lung homogenate (Prdx6; IV, 24 hr post injection): 1.8 ± 0.1 nmol/hr/mg protein
93.6 nmol/min/mg prot.		DEELQTEL [SEQ ID NO: 18]	
94.9 nmol/min/mg prot.		DEELQTELYEI (Inhibitory peptide.) [SEQ ID NO: 17]	
95.7 nmol/min/mg prot.		DEELQTELYEIK (Inhibitory peptide.) [SEQ ID NO: 16]	
102 nmol/min/mg prot.		DEELQTELYEIKHQ (Inhibitory peptide.) [SEQ ID NO: 15]	
32.0 nmol/min/mg prot.		DEELQTELYEIKHQIL (Inhibitory peptide.) [PIP-3, 16 residue rat, mouse peptide]	aiPLA2 activity of recombinant hPrdx6 (recombinant hPrdx6; listed as SEQ ID NO: 9): 20.1 nmol/min/mg prot.; aiPLA2 activity of human recombinant protein (recombinant hPrdx6): 32.0 nmol/min/mg prot.
33.2 nmol/min/mg prot.		ELQTELYEIKHQIL (Inhibitory peptide.) [SEQ ID NO: 10]	
		ELYEIKHQI (Inhibitory peptide.) [SEQ ID NO: 22]	aiPLA2 activity of human recombinant protein (recombinant hPrdx6): 93.5 nmol/min/mg prot.
28.6 nmol/min/mg prot.		ELYEIKHQIL (Inhibitory peptide.) [SEQ ID NO: 12]	
97.1 nmol/min/mg prot.		IKHQIL (DEELQTELYEIKHQ; Inhibitory peptide.) [SEQ ID NO: 14]	
	97.95 nmol/min/mg prot.	LFKLEHQIL [SN023]	
	102.04 nmol/min/mg prot.	LHDFRDQIL [SN024]	
	98.97 nmol/min/mg prot.	LHDFRHNIL [SN026]	
		LHDFRHQI [SEQ ID NO: 21]	aiPLA2 activity of human recombinant protein (recombinant hPrdx6): 93.6 nmol/min/mg prot.
	102.45 nmol/min/mg prot.	LHDFRHQLL (LHDFRHQTL; Inhibitory peptide.) [SN028]	
	101.34 nmol/min/mg prot.	LHDFRPQIL [SN025]	
	99.42 nmol/min/mg prot.	LHEFKHQIL [SN022]	
	97.67 nmol/min/mg prot.	LKIEYHQIL [SN019]	
	98.97 nmol/min/mg prot.	LRFDHHQIL [SN020]	
	29.74 nmol/min/mg prot.	LYDIRHQIL (Inhibitory peptide.) [PIP-5]	ROS production by AngII-activated NOX2 in the isolated mouse lung (NOX2): inhibit ROS production
		LYEIKHQI [SEQ ID NO: 23]	aiPLA2 activity of human recombinant protein (recombinant hPrdx6): 92.1 nmol/min/mg prot.
31.5 nmol/min/mg prot.		QTELYEIKHQIL (Inhibitory peptide.) [SEQ ID NO: 11]	
		TLHDFRHQI (Inhibitory peptide.) [SEQ ID NO: 20]	aiPLA2 activity of human recombinant protein (recombinant hPrdx6): 89.6 nmol/min/mg prot.
		TLHDFRHQIL (Inhibitory peptide.) [SEQ ID NO: 19]	aiPLA2 activity of human recombinant protein (recombinant hPrdx6): 31.5 nmol/min/mg prot.
94.4 nmol/min/mg prot.		YEIKHQIL (Inhibitory peptide.) [SEQ ID NO: 13]	
